Results published in patent publication US7026443.

B1: … (HPV16 E6, position 140, 9 amino acids) (peptide)
peptide: TGRCMSCCR
modifications: not checked
B2: HPV16 E1 11 … (peptide)
peptide: EGTGCNGWFY
modifications: not checked
B3: HPV16 E1 202 … (peptide)
peptide: NAKAAMLAK
modifications: not checked
B4: … (HPV16 E6, position 116, 9 amino acids) (peptide)
peptide: PLCPEEKQR
modifications: not checked
B5: … (HPV16 E1, position 109, 9 amino acids) (peptide)
peptide: RLKAICIEK
modifications: not checked
B6: HPV16 E1 567 … (peptide)
peptide: NINAGTDSR
modifications: not checked
B7: … (HPV16 E1, position 72, 9 amino acids) (peptide)
peptide: TAQEAKQHR
modifications: not checked
B8: … (HPV16 E6, position 145, 9 amino acids) (peptide)
peptide: SCCRSSRTR
modifications: not checked
B9: … (HPV16 E1, position 196, 9 amino acids) (peptide)
peptide: NVLKTSNAK
modifications: not checked
B10: … (HPV16 E1, position 484, 9 amino acids) (peptide)
peptide: SLFGMSLMK
modifications: not checked
B11: … (HPV16 E1, position 497, 9 amino acids) (peptide)
peptide: SVICFVNSK
modifications: not checked
B12: HPV16 E1 112 … (peptide)
peptide: AICIEKQSR
modifications: not checked
B13: HPV18 E6 peptide … (position 111, 9 amino acids) (peptide)
peptide: PLNPAEKLR
modifications: not checked
B14: HPV18 E6 peptide … (position 59, 9 amino acids) (peptide)
peptide: SIPHAACHK
modifications: not checked
B15: HPV18 E6 peptide … (position 117, 9 amino acids) (peptide)
peptide: KLRHLNEKR
modifications: not checked
B16: HPV18 E6 peptide … (position 101, 10 amino acids) (peptide)
peptide: LLIRCLRCQK
modifications: not checked
B17: HPV18 E6 peptide … (position 41, 10 amino acids) (peptide)
peptide: LTEVFEFAFK
modifications: not checked
B18: HPV18 E6 peptide … (position 102, 9 amino acids) (peptide)
peptide: LIRCLRCQK
modifications: not checked
B19: HPV18 E6 peptide … (position 84, 9 amino acids) (peptide)
peptide: SVYGDTLEK
modifications: not checked
B20: HPV18 E6 peptide … (position 95, 10 amino acids) (peptide)
peptide: NTGLYNLLIR
modifications: not checked

What follows are binders tested against HLA-A*1101 (human) (assay: competition with 125I-labelled standard peptide for purified HLA-A*1101, gel filtration).

Binder	relative binding ratio (IC50 of standard peptide / IC50 of test peptide)	binding affinity ratio (IC50 of standard peptide / IC50 of test peptide) (ratio to standard peptide)	binding affinity ratio (IC50 of the standard peptide / IC50 of the test peptide)
B1	0.0001	–	–
B2	0.0002	–	–
B3	–	0.0031	–
B4	0.0005	–	–
B5	–	–	0.051
B6	–	0.0002	–
B7	–	–	0.0025
B8	0.0001	–	–
B9	–	–	0.0015
B10	–	–	7.1
B11	–	–	0.0002
B12	0.0057	–	–

The binders below were run against HLA-A*0301 (human) (assay: competition with 125I-labelled standard peptide for purified HLA-A*0301, gel filtration).

Binder	relative binding ratio (IC50 of standard peptide / IC50 of test peptide)	relative binding ratio (IC50 of standard peptide / IC50 of test peptide) (ratio to standard peptide)
B13	0.0002	–
B14	0.017	–
B15	–	0.025

The binders below were run against HLA-A*0301 (human) (assay: not given).

Binder	relative binding ratio (IC50 of standard peptide / IC50 of test peptide)
B16	0.047
B17	0.0001
B18	0.019
B19	0.08
B20	0.0002

Each binder was assayed against HLA-A*0301 (human) (assay: competition with 125I-labelled standard peptide for purified HLA, gel filtration).

Binder	relative binding ratio (IC50 of standard peptide / IC50 of test peptide)
B13	0.0002
B16	0.047
B17	0.0001
B14	0.017
B18	0.019
B19	0.08
B15	0.025
B20	0.0002

The binders below were run against HLA-A*1101 (human) in the same assay as above.

Binder	relative binding ratio (IC50 of standard peptide / IC50 of test peptide)
B13	0.0005
B16	0.12
B17	0.036
B14	0.12
B18	0.0012
B19	0.23
B15	0.0005
B20	0.0013
